Assay [1] deals with human importin α3 (Impα3), intact (human). The assay can be described thus: BLI; BLItz; His-tagged Impα3 or ΔImpα3 immobilised on His-tag biosensors at 0.3 µM; peptides 1-7 µM; manufacturer's buffer; 25 °C; pseudo-first-order plots; apparent. (In general: BLI is a label-free optical method that tracks binding on a fibre tip over time.)
In assay [2] the target is ΔImpα3, truncated importin α3 lacking the importin β-binding (IBB) domain (human). The assay is described as above.
Assay [3] addresses human importin α3 (Impα3), intact (human). The assay can be described thus: ITC; PADI4 or peptide (100 µM) in the syringe titrated into importin (10 µM) in the cell; 20 mM Tris pH 7.5, 5 mM TCEP, 150 mM NaCl, 5% glycerol; 25 °C; single-site model.
Assay [4] addresses ΔImpα3, truncated importin α3 lacking the importin β-binding (IBB) domain (human). The description is as above.
The target in assay [5] is human importin α3 (Impα3), intact (human). The description is as above. This is another data set of the same source.
The target in assay [6] is NLS1-PADI4 peptide (human). The assay can be described thus: translational diffusion NMR (DOSY); 100 µM peptide; 100 mM sodium phosphate, pH 7.0; 10 °C; dioxane as reference.
The target in assay [7] is PADI4 (peptidyl-arginine deiminase 4), intact (human) (UniProt Q9UM07). The assay can be described thus: other fluorescence titration; importin species 0-25 µM added to 3 µM PADI4; 20 mM Tris pH 7.5, 5 mM TCEP, 150 mM NaCl, 5% glycerol; 25 °C; fluorescence at 330 nm.
Chain of PADI4 (peptidyl-arginine deiminase 4), intact (human) (Q9UM07 whole entry): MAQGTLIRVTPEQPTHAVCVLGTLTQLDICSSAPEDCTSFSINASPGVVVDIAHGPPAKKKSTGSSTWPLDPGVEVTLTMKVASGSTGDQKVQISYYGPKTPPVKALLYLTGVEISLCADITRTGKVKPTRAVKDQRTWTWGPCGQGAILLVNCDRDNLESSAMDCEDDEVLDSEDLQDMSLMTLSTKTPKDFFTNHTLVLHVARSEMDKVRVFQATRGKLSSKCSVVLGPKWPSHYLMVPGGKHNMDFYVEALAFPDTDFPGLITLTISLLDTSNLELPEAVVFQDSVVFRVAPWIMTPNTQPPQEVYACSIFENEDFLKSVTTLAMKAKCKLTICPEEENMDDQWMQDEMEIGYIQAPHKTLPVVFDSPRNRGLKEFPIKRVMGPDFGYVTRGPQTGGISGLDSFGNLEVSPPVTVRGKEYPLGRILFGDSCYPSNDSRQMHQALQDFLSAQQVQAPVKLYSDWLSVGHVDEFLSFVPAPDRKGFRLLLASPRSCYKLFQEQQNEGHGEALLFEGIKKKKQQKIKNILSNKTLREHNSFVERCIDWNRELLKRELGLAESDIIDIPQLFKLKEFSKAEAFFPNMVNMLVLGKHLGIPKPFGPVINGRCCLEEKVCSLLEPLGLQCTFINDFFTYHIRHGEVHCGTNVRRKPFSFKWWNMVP

Chain of PADI4 (peptidyl-arginine deiminase 4), intact (Q9UM07 whole entry): as above

Turning to NLS1-PADI4 peptide, in assay [1], the Kd worked out at 18 µM, the koff came out at 0.0685 s⁻¹ and the kon was found to be 3700 M⁻¹ s⁻¹. For the same substance, in assay [2], the Kd worked out at 4 µM, the off-rate constant (koff) worked out at 0.046 s⁻¹ and the kon was 11000 M⁻¹ s⁻¹. In assay [3], this substance returned a Ka of 230000 M⁻¹, a Kd of 4.3 µM, a dH of -21.3 kcal/mol and a stoichiometry N of 1.24. Further, in assay [4], the Ka was 650000 M⁻¹, the Kd was determined as 1.5 µM, the dH was -8.7 kcal/mol and the stoichiometry N amounted to 1.22. In addition, the Kd in assay [5] stood at 4.4 µM. For the same substance, the stoichiometry N in assay [6] turned out to be 6.

Turning to “PADI4 (peptidyl-arginine deiminase 4), intact (from UniProt Q9UM07 1-663) (enzyme)”, in assay [3], the Ka amounted to 210000 M⁻¹, the Kd worked out at 4.8 µM, the dH was -65.5 kcal/mol and the stoichiometry N came to 0.97. In assay [4], this substance gave a Ka of 780000 M⁻¹, a Kd of 1.3 µM, a dH of -38.4 kcal/mol and a stoichiometry N of 0.84.

Take “human importin α3 (Impα3), intact (natural protein)”: in assay [7], the Kd stood at 3.9 µM.

The substance “ΔImpα3, truncated importin α3 lacking the importin β-binding (IBB) domain (domain or fragment)” showed a Kd in assay [7] of 6 µM.

For orientation: koff means the first-order rate constant of dissociation. What is called kon is the rate constant with which the complex forms. In general, stoichiometry N refers to the number of molecules, sites or subunits per partner or assembly.

(Values after PMC9319256, “Human Enzyme PADI4 Binds to the Nuclear Carrier Importin α3” (Cells, 2022).)
